Assay results as given in article PMC8795526.

Target: human neonatal Fc receptor (hFcRn) (human) (UniProt P55899)
Experiment: SPR

UniProt P55899, sequence (P55899 24-297, chain 1 of 2): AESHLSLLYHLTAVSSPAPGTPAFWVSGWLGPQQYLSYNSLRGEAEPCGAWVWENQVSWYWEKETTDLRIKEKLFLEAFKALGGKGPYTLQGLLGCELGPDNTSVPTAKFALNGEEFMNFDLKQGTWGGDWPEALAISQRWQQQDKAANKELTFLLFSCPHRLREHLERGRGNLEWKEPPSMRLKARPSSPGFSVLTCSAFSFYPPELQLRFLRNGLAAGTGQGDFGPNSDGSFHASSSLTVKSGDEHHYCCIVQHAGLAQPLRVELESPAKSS
UniProt P55899, sequence (P61769 21-119, chain 2 of 2, further chain): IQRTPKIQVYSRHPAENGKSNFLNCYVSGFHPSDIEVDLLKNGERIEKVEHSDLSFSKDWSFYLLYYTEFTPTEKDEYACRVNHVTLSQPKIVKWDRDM

How did the Kd turn out when 3F6-hIgG1 (antibody) was run?
The Kd was 538 nM.
